# Assay results reported in the supplement of paper PMC10567573.
# B1: PTPRD (parent)
# chain: PVVSMDLDPQPITDEEEGLIWVVG
# Variants of: B1
# Assay: protein stability index of a GFP-peptide fusion (GPS, HEK-293T) (PSI 1-6); higher = more stable
# Details: c terminus: a fixed tail appended
# 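Further: lentivirally expressed fusions sorted by FACS into six bins by GFP to DsRed ratio, PSI derived from sequencing read proportions per bin multiplied by bin number.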
row,Variant,protein stability index
1,PVVSMDLDPQPDTDEEEGLIWVVG [I12D],4.52
2,PVVSMDLDPQPETDEEEGLIWVVG [I12E],4.94
3,PVVSMDLDPQPFTDEEEGLIWVVG [I12F],2.78
4,PVVSMDLDPQPGTDEEEGLIWVVG [I12G],4.49
5,PVVSMDLDPQPHTDEEEGLIWVVG [I12H],4.07
6,PVVSMDLDPQPKTDEEEGLIWVVG [I12K],4.84
7,PVVSMDLDPQPLTDEEEGLIWVVG [I12L],3.95
8,PVVSMDLDPQPMTDEEEGLIWVVG [I12M],3.75
9,PVVSMDLDPQPNTDEEEGLIWVVG [I12N],4.28
10,PVVSMDLDPQPRTDEEEGLIWVVG [I12R],4.74
11,PVVSMDLDPQPSTDEEEGLIWVVG [I12S],3.64
12,PVVSMDLDPQPVTDEEEGLIWVVG [I12V],4.28
13,PVVSMDLDPQPYTDEEEGLIWVVG [I12Y],2.86
14,PVVSMDLDPQPIADEEEGLIWVVG [T13A],3.87
15,PVVSMDLDPQPICDEEEGLIWVVG [T13C],3.84
16,PVVSMDLDPQPIDDEEEGLIWVVG [T13D],4.13
17,PVVSMDLDPQPIIDEEEGLIWVVG [T13I],2.71
18,PVVSMDLDPQPILDEEEGLIWVVG [T13L],3.07
19,PVVSMDLDPQPINDEEEGLIWVVG [T13N],3.87
20,PVVSMDLDPQPIPDEEEGLIWVVG [T13P],3.36
21,PVVSMDLDPQPISDEEEGLIWVVG [T13S],3.13
22,PVVSMDLDPQPIVDEEEGLIWVVG [T13V],3.58
23,PVVSMDLDPQPIWDEEEGLIWVVG [T13W],2.47
24,PVVSMDLDPQPIYDEEEGLIWVVG [T13Y],2.9

row,Variant,protein stability index
1,PVVSMDLDPQPITAEEEGLIWVVG [D14A],2.58
2,PVVSMDLDPQPITCEEEGLIWVVG [D14C],2.9
3,PVVSMDLDPQPITEEEEGLIWVVG [D14E],3.78
4,PVVSMDLDPQPITFEEEGLIWVVG [D14F],2.14
5,PVVSMDLDPQPITGEEEGLIWVVG [D14G],3.87
6,PVVSMDLDPQPITIEEEGLIWVVG [D14I],4.15
7,PVVSMDLDPQPITLEEEGLIWVVG [D14L],2.06
8,PVVSMDLDPQPITMEEEGLIWVVG [D14M],2.36
9,PVVSMDLDPQPITNEEEGLIWVVG [D14N],3.9
10,PVVSMDLDPQPITREEEGLIWVVG [D14R],2.31
11,PVVSMDLDPQPITSEEEGLIWVVG [D14S],4.05
12,PVVSMDLDPQPITYEEEGLIWVVG [D14Y],2.27
13,PVVSMDLDPQPITDCEEGLIWVVG [E15C],3.25
14,PVVSMDLDPQPITDDEEGLIWVVG [E15D],2.31
15,PVVSMDLDPQPITDGEEGLIWVVG [E15G],3.21
16,PVVSMDLDPQPITDKEEGLIWVVG [E15K],3.16
17,PVVSMDLDPQPITDNEEGLIWVVG [E15N],3.67
18,PVVSMDLDPQPITDPEEGLIWVVG [E15P],3.19
19,PVVSMDLDPQPITDQEEGLIWVVG [E15Q],3.77
20,PVVSMDLDPQPITDREEGLIWVVG [E15R],3.57
21,PVVSMDLDPQPITDSEEGLIWVVG [E15S],2.9
22,PVVSMDLDPQPITDTEEGLIWVVG [E15T],2.33
23,PVVSMDLDPQPITDWEEGLIWVVG [E15W],1.61
24,PVVSMDLDPQPITDEAEGLIWVVG [E16A],3.22

row,Variant,protein stability index
1,PVVSMDLDPQPITDECEGLIWVVG [E16C],1.94
2,PVVSMDLDPQPITDEDEGLIWVVG [E16D],4.08
3,PVVSMDLDPQPITDEFEGLIWVVG [E16F],1.07
4,PVVSMDLDPQPITDEHEGLIWVVG [E16H],3.2
5,PVVSMDLDPQPITDEPEGLIWVVG [E16P],2.79
6,PVVSMDLDPQPITDEQEGLIWVVG [E16Q],3.79
7,PVVSMDLDPQPITDESEGLIWVVG [E16S],3.36
8,PVVSMDLDPQPITDETEGLIWVVG [E16T],2.87
9,PVVSMDLDPQPITDEVEGLIWVVG [E16V],1.5
10,PVVSMDLDPQPITDEWEGLIWVVG [E16W],2.27
11,PVVSMDLDPQPITDEYEGLIWVVG [E16Y],2.79
12,PVVSMDLDPQPITDEEAGLIWVVG [E17A],2.26
13,PVVSMDLDPQPITDEECGLIWVVG [E17C],2.25
14,PVVSMDLDPQPITDEEDGLIWVVG [E17D],4.26
15,PVVSMDLDPQPITDEEGGLIWVVG [E17G],3.34
16,PVVSMDLDPQPITDEEIGLIWVVG [E17I],1.8
17,PVVSMDLDPQPITDEEKGLIWVVG [E17K],3.12
18,PVVSMDLDPQPITDEELGLIWVVG [E17L],2.56
19,PVVSMDLDPQPITDEEMGLIWVVG [E17M],1.69
20,PVVSMDLDPQPITDEENGLIWVVG [E17N],3.37
21,PVVSMDLDPQPITDEEPGLIWVVG [E17P],2.38
22,PVVSMDLDPQPITDEEQGLIWVVG [E17Q],4.18
23,PVVSMDLDPQPITDEERGLIWVVG [E17R],2.75
24,PVVSMDLDPQPITDEESGLIWVVG [E17S],2.88

row,Variant,protein stability index
1,PVVSMDLDPQPITDEETGLIWVVG [E17T],3.31
2,PVVSMDLDPQPITDEEVGLIWVVG [E17V],1.75
3,PVVSMDLDPQPITDEEYGLIWVVG [E17Y],1.38
4,PVVSMDLDPQPITDEEECLIWVVG [G18C],2.63
5,PVVSMDLDPQPITDEEEDLIWVVG [G18D],4.59
6,PVVSMDLDPQPITDEEEELIWVVG [G18E],4.22
7,PVVSMDLDPQPITDEEEHLIWVVG [G18H],3.52
8,PVVSMDLDPQPITDEEEKLIWVVG [G18K],3.72
9,PVVSMDLDPQPITDEEELLIWVVG [G18L],3.16
10,PVVSMDLDPQPITDEEEMLIWVVG [G18M],2
11,PVVSMDLDPQPITDEEENLIWVVG [G18N],4.42
12,PVVSMDLDPQPITDEEEPLIWVVG [G18P],3.19
13,PVVSMDLDPQPITDEEEQLIWVVG [G18Q],3.37
14,PVVSMDLDPQPITDEEERLIWVVG [G18R],3.28
15,PVVSMDLDPQPITDEEESLIWVVG [G18S],3.98
16,PVVSMDLDPQPITDEEEYLIWVVG [G18Y],2.27
17,PVVSMDLDPQPITDEEEGAIWVVG [L19A],4.6
18,PVVSMDLDPQPITDEEEGEIWVVG [L19E],4.54
19,PVVSMDLDPQPITDEEEGFIWVVG [L19F],3.65
20,PVVSMDLDPQPITDEEEGNIWVVG [L19N],4.57
21,PVVSMDLDPQPITDEEEGQIWVVG [L19Q],3.66
22,PVVSMDLDPQPITDEEEGSIWVVG [L19S],4.21
